Reference: EP0730609B1

Target: recombinant human IL4 (E. coli, non-glycosylated) (human) (UniProt P05112)
Experiment: cell-based or functional assay

recombinant human IL4 (E. coli, non-glycosylated) (human), sequence (P05112 25-153 limits assumed): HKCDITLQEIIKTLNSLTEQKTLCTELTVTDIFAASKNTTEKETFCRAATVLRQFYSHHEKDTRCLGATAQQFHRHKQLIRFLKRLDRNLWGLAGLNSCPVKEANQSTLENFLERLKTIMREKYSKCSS

B1: humanized 3B9 (IgG4) (antibody, from another filing, V domains shown)
VH: QVTLRESGPALVKPTQTLTLTCTFSGFSLSTSGMGVSWIRQPPGKGLEWLAHIYWDDDKRYNPSLKSRLTISKDTSRNQVVLTMTNMDPVDTATYYCARRETVFYWYFDVWGRGTPVTVSS
VL: IVMTQSPDSLAVSLGERATINCKASQSVDYDGDSYMNWYQQKPGQPPKLLIYAASNLESGVPDRFSGSGSGTDFTLTISSLQAEDVAVYYCQQSNEDPPRFGGGTKVEIKR
For B1, which B cell (inhibition of IL4-stimulated B lymphocyte proliferation), IC50 is on record?
Its B cell (inhibition of IL4-stimulated B lymphocyte proliferation), IC50 is 0.079 nM.

What about the IgE synthesis (inhibition of IL4-driven IgE secretion), IC50 of the same binder?
The IgE synthesis (inhibition of IL4-driven IgE secretion), IC50 was 0.406 nM.

And the T cell (inhibition of IL4-stimulated T lymphocyte proliferation), IC50?
Its T cell (inhibition of IL4-stimulated T lymphocyte proliferation), IC50 is 0.04 nM.
